The target in assay [1] is T1, AβpE11-28 monomer (UniProt P05067 682-699, pyroglutamate at position 11 (N-terminal residue)).
T1 construct: range 11-28 (Aβ numbering)
T1 peptide (looked up): EVHHQKLVFFAEDVGSNK
Kind of assay: SPR, antibody immobilised. The protocol:
(§1) Single cycle kinetics with the antibodies immobilized on a CM5 chip was used to measure the binding of the antibodies to the different monomers (AβpE3-40, AβpE11-28, Aβ1-28, Aβ2-28, Aβ3-28 and Aβ4-28). For the measurements, 5 μg/ml of analyte antibody was immobilized on the chip. […] Regeneration of the surface between cycles was done by injecting 30 μl 3 M MgCl₂. The binding data was fitted to a 1:1 interaction model.
(§2) In all SPR experiments, 1×HBS-EP+ (Cytiva, cat. no. BR100669) was used as running buffer and to dilute antibodies and target antigens. Experiments were performed at 25° C.
(In SPR one partner is held on a chip, and binding of the other changes the refractive index at the surface.)

The target of assay [2] is T2, Aβ3-28 monomer (UniProt P05067 674-699).
T2 construct: range 3-28 (Aβ numbering)
T2 sequence (P05067 674-699): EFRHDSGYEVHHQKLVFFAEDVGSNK
Put plainly: SPR, antibody immobilised. As for the experimental part:
as §1, §2

The target of assay [3] is T3, Aβ2-28 monomer (UniProt P05067 673-699).
T3 construct: range 2-28 (Aβ numbering)
T3 sequence (P05067 673-699): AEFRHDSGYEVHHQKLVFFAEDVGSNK
Put plainly: SPR, antibody immobilised. The protocol:
as §1, §2

Assay [4] deals with T4, Aβ4-28 monomer (UniProt P05067 675-699).
T4 construct: range 4-28 (Aβ numbering)
T4 sequence (P05067 675-699): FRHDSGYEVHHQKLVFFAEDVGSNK
Put plainly: SPR, antibody immobilised, monomer injected, 1:1 fit. The protocol: as §1, §2

The target in assay [5] is T5, AβpE3-40 monomer (UniProt P05067 674-711, pyroglutamate at position 3 (N-terminal residue)).
T5 construct: range 3-40 (Aβ numbering); Synthetic peptide (Bachem/Anaspec), verified monomeric by SEC; also called monomeric AβpE3-40
Described as above. As for the experimental part:
as §1, §2

Assay [6] addresses T6, Aβ2-42 monomer (UniProt P05067 673-713).
T6 construct: range 2-42 (Aβ numbering)
Put plainly: ELISA: Aβ monomer captured on a polyclonal anti-Aβ42 coat, hybridoma supernatant diluted 1/243, anti-mouse IgG-HRP.

The target in assay [7] is T7, Aβ1-42 monomer (UniProt P05067 672-713).
T7 construct: range 1-42 (Aβ numbering)
T7 sequence (P05067 672-713): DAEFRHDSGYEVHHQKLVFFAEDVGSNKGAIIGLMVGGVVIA
The assay is described as above.

In assay [8] the target is T8, Aβ1-28 monomer (UniProt P05067 672-699).
T8 construct: range 1-28 (Aβ numbering)
T8 sequence (P05067 672-699): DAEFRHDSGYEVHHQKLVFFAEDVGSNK
Kind of assay: SPR, antibody immobilised. The protocol: Affinity and specificity evaluation and KD determination by surface plasmon resonance: Binding interactions between antigens and antibodies were evaluated by SPR using a Biacore 8K instrument (Cytiva) according to standard procedures. […] Additionally, the specificity towards different N-truncated forms of Aβ (Aβ2-28, Aβ3-28, Aβ4-28 and AβpE11-28 monomers) was evaluated.
as §1, §2

Assay [9] addresses T9, AβpE11-40 monomer (UniProt P05067 682-711, pyroglutamate at position 11 (N-terminal residue)).
T9 construct: range 11-40 (Aβ numbering)
T9 peptide (looked up): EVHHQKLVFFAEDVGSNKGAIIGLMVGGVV
Put plainly: inhibition ELISA, antigen titrated in solution, AβpE3-40 coat. As for the experimental part:
(§3) For binding to Aβ1-40 and AβpE11-40, the positive control 4G8 (Covance #SIG-39320, epitope: amino acids 17-24 of Aβ) was included. The recombinant antibodies were incubated at a fixed concentration (0.05 μg/ml) with titrating concentrations of the different Aβ antigens. After incubation for 45 min at 900 rpm to reach equilibrium, the antibody-Aβ samples were added to a blocked and washed ELISA plate with an AβpE3-40 coat (0.5 μM). The samples were incubated on the plate for 25 min without shaking followed by washing, incubation with detection antibody, another washing step and finally incubation with alkaline phosphatase substrate.

The target in assay [10] is T10, AβpE3-42 protofibrils (UniProt P05067 674-713, pyroglutamate at position 3 (N-terminal residue)).
T10 construct: range 3-42 (Aβ numbering); Soluble aggregates made from AβpE3-42 peptide, purified in the void peak of SEC; also called AβpE3-42 PF
T10 sequence (P05067 674-713): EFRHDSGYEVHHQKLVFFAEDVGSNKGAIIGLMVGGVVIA
The description is as above. The protocol: as §3

For assay [11], the target named is T5, AβpE3-40 monomer. Described as above. The protocol:
as §3

The target of assay [12] is T11, Aβ1-40 monomer (UniProt P05067 672-711).
T11 construct: range 1-40 (Aβ numbering)
The description is as above. The protocol:
as §3

The target of assay [13] is T10, AβpE3-42 protofibrils. Kind of assay: SPR, protofibrils immobilised, antibody injected, 1:1 fit, apparent. The protocol:
(§4) Single cycle kinetics was also used to measure binding of the antibodies to AβpE3-42 protofibrils. […] For binding to AβpE3-42 protofibrils, the antibodies were injected over the chip using a 3-fold dilution series in five steps starting at 700 nM, using 2 min injection of every antibody concentration and a 60 min dissociation time. Regeneration of the surface between cycles was done by injecting 30 μl 10 mM glycine-HCl pH 1.7. The binding data was fitted to a 1:1 interaction model.
as §2

Assay [14] has as its target T10, AβpE3-42 protofibrils. Put plainly: SPR, protofibrils immobilised, antibody injected, 1:1 fit, apparent; binding to AβpE3-42 protofibrils (not monomer); KD in pM. The protocol:
as §4, §2

T6 sequence (P05067 673-713): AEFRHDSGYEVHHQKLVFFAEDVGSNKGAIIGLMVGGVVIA

B1: Pyr7.1 (antibody, V domains shown)
VH: KVQLQQSGPELVKPGTSIKMSCKTSGYSFTGYTLNWVKQSPGKNPEWIGLINPYNGITTYNPKFMGKATLTVDKSSSTAYMELLSLTSEDSAVYYCSREGNWEGVYWGQGTLVTVSA
VL: not shown
notes: Murine anti-AβpE3 antibody; also called recombinant antibody Pyr7.1; hybridoma clone Pyr7.1
A word on the koff: it is the first-order rate constant of dissociation. By kon is commonly meant a measure of how fast the partners come together. By IC50 is commonly meant the concentration at which inhibition is half-maximal. In the case of B1, the binding result in [1] was “no binding (tested: 2500 nM)”; in [2] it was “no binding (tested: 2500 nM)”; in assay [3], “no binding (tested: 2500 nM)”; in assay [6] it was “no binding”; in assay [7], “no binding”; in assay [8] it was “no binding (tested: 2500 nM)”. For the same molecule, the Kd in [4] amounted to 8310 nM; in assay [5] it was 2.3 nM; in assay [14], 0.031 nM. The koff in [4] is 0.454 s⁻¹; in [5], 0.000122 s⁻¹; in [13] it was 2.29e-06 s⁻¹. Also, the kon worked out at 102000 M⁻¹ s⁻¹ in assay [4], 53200 M⁻¹ s⁻¹ in assay [5] and 78200 M⁻¹ s⁻¹ in assay [13]. The IC50 in assay [9] is over 5000 nM; in assay [10], 12.8 nM; in [11] it was 2.85 nM; in assay [12] it was over 5000 nM.

Source of the values: patent US20250388664A1 (BIOARCTIC, published 2025).
